Measurements from patent US20050191240A1 (BIOSYNTHEMA, published 2005).
Read-outs that look alike come from different tables or passages of the source. Values belong to the molecule of their own block, whether it stands above or below them. *1 amine or outer side, *2 acyl side, *3 side chain or, on linkers, in order; H or OH if unused. [ ]: non-standard residue; d: D form. The star is where a group is joined. trans‑Cha(4-CH2NH2) = trans-(4-aminomethyl)cyclohexylalanine, O=C([C@H](C[C@H]1CC[C@H](CN[*:3])CC1)N[*:1])[*:2]; Gly(1-amidinopiperidin-4-yl) = N=C(N)N1CCC([C@H](N)C(=O)O)CC1; DTPA = O=C(O)CN(CCN(CC(=O)O)CC(=O)O)CCN(CC(=O)O)CC(=O)*; Phe(4-guanidino) = N=C(N)Nc1ccc(C[C@H](N)C(=O)O)cc1; homoAla(PipAm) = (N-amidinopiperidinyl)homoalanine; Ala(PipAm) = (N-amidinopiperidinyl)alanine; Dmt = Cc1cc(O)cc(C)c1C[C@H](N)C(=O)O; mTyr = N[C@@H](Cc1cccc(O)c1)C(=O)O; Ala(cPr) = N[C@@H](CC1CC1)C(=O)O; AzeCA = azetidinecarboxylic acid; tBuAla = CC(C)(C)C[C@H](N)C(=O)O; Cha = N[C@@H](CC1CCCCC1)C(=O)O; Chg = N[C@H](C(=O)O)C1CCCCC1; Tle = CC(C)(C)[C@H](N)C(=O)O; Aba(Apy) = not defined here; PipGly = piperidinylglycine; NHOH = ON*

Tests used:
Assay in all cases: competitive binding vs radioiodinated native neurotensin, human tumor sections
[1] = biological target: neurotensin receptors (frozen tissue sections from receptor-positive human tumors) (human) (UniProt P30989)
[2] = biological target: T1, neurotensin receptors (frozen tissue sections from receptor-positive human tumors) (human, UniProt P30989 1-418)
T1 construct: whole, on cells
Excerpt: (§1) Frozen tissue sections from receptor-positive human tumors were used in a competitive binding assay.

[3] = biological target: T1, neurotensin receptors (frozen tissue …); remark: listed apart in the source
Excerpt: as §1

[4] = biological target: T1, neurotensin receptors (frozen tissue …); remark: listed apart in the source
Excerpt: as §1

Chain of neurotensin receptors (frozen tissue sections from receptor-positive human tumors) (human) (P30989 whole entry): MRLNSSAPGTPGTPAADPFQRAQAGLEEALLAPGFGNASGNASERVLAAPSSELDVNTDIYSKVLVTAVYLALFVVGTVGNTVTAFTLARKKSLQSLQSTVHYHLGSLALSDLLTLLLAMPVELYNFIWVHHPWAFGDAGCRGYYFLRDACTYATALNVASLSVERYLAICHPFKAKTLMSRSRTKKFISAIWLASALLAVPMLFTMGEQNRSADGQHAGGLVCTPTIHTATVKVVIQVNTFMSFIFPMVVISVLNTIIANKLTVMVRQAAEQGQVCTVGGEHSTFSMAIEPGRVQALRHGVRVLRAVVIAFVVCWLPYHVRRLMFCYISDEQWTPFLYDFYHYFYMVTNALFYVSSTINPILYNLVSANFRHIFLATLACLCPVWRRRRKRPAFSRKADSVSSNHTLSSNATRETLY
T1 sequence (P30989 whole entry): as above

Molecule: DTPA-DLys-Pro-Aba(Apy)-Aba(Apy)-Pro-Tyr-Ile-Leu-OH (peptide)
Kd [1]: > 10 µM

Molecule: {DTPA}-[dK]P[Ala(PipAm)]RPY[Tle]L-OH [DTPA-DLys-Pro-Ala(PipAm)-Arg-Pro-Tyr-tBuGly-Leu-OH]
Kd [2]: 0.014 µM

Molecule: {DTPA}-[dK]P[Aba(Apy)]RPYIL-OH (reading uncertain, also called Compound III) [DTPA-DLys-Pro-Aba(Apy)-Arg-Pro-Tyr-Ile-Leu-OH]
Kd [4]: 0.068 µM
Kd [3]: 0.068 µM
Kd [2]: 0.068 µM

B2: DTPA-DLys-Pro-(4-Gu)Phe-(4-Gu)Phe-Pro-Tyr-Ile-Leu-OH (peptide)
peptide: {DTPA}-[dK]P[Phe(4-guanidino)][Phe(4-guanidino)]PYIL-OH
SMILES: CC[C@H](C)[C@H](NC(=O)[C@H](Cc1ccc(O)cc1)NC(=O)[C@@H]1CCCN1C(=O)[C@H](Cc1ccc(NC(=N)N)cc1)NC(=O)[C@H](Cc1ccc(NC(=N)N)cc1)NC(=O)[C@@H]1CCCN1C(=O)[C@@H](CCCCN)NC(=O)CN(CCN(CCN(CC(=O)O)CC(=O)O)CC(=O)O)CC(=O)O)C(=O)N[C@@H](CC(C)C)C(=O)O
notes: also called DTPA-DLys-Pro-Phe(4-guanyl)-Phe(4-guanyl)-Pro-Tyr-Ile-Leu-OH
Kd [3]: 0.175 µM
Kd [2]: 0.175 µM

Molecule: {DTPA}-[dK]P[Gly(1-amidinopiperidin-4-yl)]R[AzeCA]Y[Tle]L-OH [DTPA-DLys-Pro-Gly(PipAm)-Arg-AzeCA-Tyr-tBuGly-Leu-OH]
Kd [1]: 0.74 µM

B4: DTPA-DLys-Pro-(4-Gu)Phe-Arg-Pro-Tyr-tBuGly-Leu-OH (peptide)
peptide: {DTPA}-[dK]P[Phe(4-guanidino)]RPY[Tle]L-OH
notes: also called Compound IX; DTPA-DLys-Pro-Phe(4-guanyl)-Arg-Pro-Tyr-tBuGly-Leu-OH
IC50 [3]: 0.0125 µM
Kd [2]: 0.0125 µM

Molecule: {DTPA}-[dK]P[Gly(1-amidinopiperidin-4-yl)]RP[dY][Tle]L-OH [DTPA-DLys-Pro-Gly(PipAm)-Arg-Pro-DTyr-tBuGly-Leu-OH]
Kd [2]: 0.0064 µM

Molecule: {DTPA}-[dK]PR[Aba(Apy)]PYIL-OH (reading uncertain) [DTPA-DLys-Pro-Arg-Aba(Apy)-Pro-Tyr-Ile-Leu-OH]
Kd [3]: 1.2 µM
Kd [2]: 1.2 µM

Molecule: {DTPA}-[dK]P[Gly(1-amidinopiperidin-4-yl)]RP[Dmt][Tle]L-OH [DTPA-DLys-Pro-Gly(PipAm)-Arg-Pro-(2,6-diMe)Tyr-tBuGly-Leu-OH]
Kd [1]: 0.045 µM

B8: DTPA-DLys-Pro-(4-Gu)Phe-Arg-Pro-Tyr-Ile-Leu-OH (peptide)
peptide: KPXRPYIL
modifications: N-terminal DTPA; D-Lys at 1; (4-Gu)Phe [Phe(4-guanyl)] at 3 (X)
notes: also called Compound I; DTPA-DLys-Pro-Phe(4-guanyl)-Arg-Pro-Tyr-Ile-Leu-OH
Kd [4]: 0.0086 µM
Kd [3]: 0.0086 µM
Kd [2]: 0.0086 µM

B10: DTPA-DLys-Pro-Arg-(4-Gu)Phe-Pro-Tyr-Ile-Leu-OH (peptide)
peptide: KPRXPYIL
modifications: N-terminal DTPA; D-Lys at 1; (4-Gu)Phe [Phe(4-guanyl)] at 4 (X)
notes: also called DTPA-DLys-Pro-Arg-Phe(4-guanyl)-Pro-Tyr-Ile-Leu-OH
Kd [3]: 0.083 µM
Kd [2]: 0.083 µM

Molecule: {DTPA}-[dK][AzeCA][Gly(1-amidinopiperidin-4-yl)]RPY[Tle]L-OH [DTPA-DLys-AzeCA-Gly(PipAm)-Arg-Pro-Tyr-tBuGly-Leu-OH]
Kd [1]: 0.024 µM

The remaining lines, values ahead:

Kd [1]: 0.14 µM
Molecule: {DTPA}-[dK]P[Gly(1-amidinopiperidin-4-yl)][PipGly]PY[Tle]L-OH [DTPA-DLys-Pro-Gly(PipAm)-PipGly-Pro-Tyr-tBuGly-Leu-OH]

IC50 [3]: 0.0035 µM
Kd [2]: 0.0035 µM
Molecule: {DTPA}-[dK]P[Gly(1-amidinopiperidin-4-yl)]RPY[Tle]L-OH (also called Compound X) [DTPA-DLys-Pro-Gly(PipAm)-Arg-Pro-Tyr-tBuGly-Leu-OH]

Kd [1]: 0.005 µM
B1: DTPA-trans-Cha(4-CH2NH2)-Pro-Gly(PipAm)-Arg-Pro-Tyr-tBuGly-Leu-OH (peptide)
peptide: {DTPA}-[trans‑Cha(4-CH2NH2)]P[Gly(1-amidinopiperidin-4-yl)]RPY[Tle]L-OH
SMILES: CC(C)C[C@H](NC(=O)[C@@H](NC(=O)[C@H](Cc1ccc(O)cc1)NC(=O)[C@@H]1CCCN1C(=O)[C@H](CCCNC(=N)N)NC(=O)[C@@H](NC(=O)[C@@H]1CCCN1C(=O)[C@H](C[C@H]1CC[C@H](CN)CC1)NC(=O)CN(CCN(CCN(CC(=O)O)CC(=O)O)CC(=O)O)CC(=O)O)C1CCN(C(=N)N)CC1)C(C)(C)C)C(=O)O

Kd [2]: 0.025 µM
Molecule: {DTPA}-[dK]P[Gly(1-amidinopiperidin-4-yl)]RPY[Chg]L-OH [DTPA-DLys-Pro-Gly(PipAm)-Arg-Pro-Tyr-Chg-Leu-OH]

Kd [2]: 0.0035 µM
B3: DTPA-DTyr-Glu-Asn-Lys-Pro-Gly(PipAm)-Arg-Pro-Tyr-tBuGly-tBuAla-OH (peptide)
peptide: {DTPA}-[dY]ENKP[Gly(1-amidinopiperidin-4-yl)]RPY[Tle][tBuAla]-OH
SMILES: CC(C)(C)C[C@H](NC(=O)[C@@H](NC(=O)[C@H](Cc1ccc(O)cc1)NC(=O)[C@@H]1CCCN1C(=O)[C@H](CCCNC(=N)N)NC(=O)[C@@H](NC(=O)[C@@H]1CCCN1C(=O)[C@H](CCCCN)NC(=O)[C@H](CC(N)=O)NC(=O)[C@H](CCC(=O)O)NC(=O)[C@@H](Cc1ccc(O)cc1)NC(=O)CN(CCN(CCN(CC(=O)O)CC(=O)O)CC(=O)O)CC(=O)O)C1CCN(C(=N)N)CC1)C(C)(C)C)C(=O)O
notes: also called Compound XV

Kd [2]: 0.049 µM
Molecule: {DTPA}-[dK]P[Gly(1-amidinopiperidin-4-yl)]RPY[Tle]L-{NHOH} [DTPA-DLys-Pro-Gly(PipAm)-Arg-Pro-Tyr-tBuGly-Leu-HA]

Kd [4]: 0.0027 µM
Kd [3]: 0.0027 µM
Kd [2]: 0.0027 µM
B5: DTPA-DLys-Pro-Gly(PipAm)-Arg-Pro-Tyr-Ile-Leu-OH (peptide)
peptide: KPXRPYIL
modifications: N-terminal DTPA; D-Lys at 1; Gly(PipAm) ((N-amidinopiperidinyl)glycine) at 3 (X)
notes: also called Compound II

Kd [1]: 0.0073 µM
B6: DTPA-DLys-Pro-Gly(PipAm)-Arg-Pro-Tyr-tBuGly-tBuAla-OH (peptide)
peptide: {DTPA}-[dK]P[Gly(1-amidinopiperidin-4-yl)]RPY[Tle][tBuAla]-OH
SMILES: CC(C)(C)C[C@H](NC(=O)[C@@H](NC(=O)[C@H](Cc1ccc(O)cc1)NC(=O)[C@@H]1CCCN1C(=O)[C@H](CCCNC(=N)N)NC(=O)[C@@H](NC(=O)[C@@H]1CCCN1C(=O)[C@@H](CCCCN)NC(=O)CN(CCN(CCN(CC(=O)O)CC(=O)O)CC(=O)O)CC(=O)O)C1CCN(C(=N)N)CC1)C(C)(C)C)C(=O)O

Kd [2]: 0.0045 µM
B7: DTPA-DTyr-Glu-Asn-Lys-Pro-Gly(PipAm)-Arg-Pro-Tyr-tBuGly-Leu-OH (peptide)
peptide: {DTPA}-[dY]ENKP[Gly(1-amidinopiperidin-4-yl)]RPY[Tle]L-OH
SMILES: CC(C)C[C@H](NC(=O)[C@@H](NC(=O)[C@H](Cc1ccc(O)cc1)NC(=O)[C@@H]1CCCN1C(=O)[C@H](CCCNC(=N)N)NC(=O)[C@@H](NC(=O)[C@@H]1CCCN1C(=O)[C@H](CCCCN)NC(=O)[C@H](CC(N)=O)NC(=O)[C@H](CCC(=O)O)NC(=O)[C@@H](Cc1ccc(O)cc1)NC(=O)CN(CCN(CCN(CC(=O)O)CC(=O)O)CC(=O)O)CC(=O)O)C1CCN(C(=N)N)CC1)C(C)(C)C)C(=O)O
notes: also called Compound XIII

Kd [1]: 0.012 µM
B9: DTPA-DLys-Pro-Gly(PipAm)-Arg-Pro-Tyr-tBuGly-Cha-OH (peptide)
peptide: {DTPA}-[dK]P[Gly(1-amidinopiperidin-4-yl)]RPY[Tle][Cha]-OH
SMILES: CC(C)(C)[C@H](NC(=O)[C@H](Cc1ccc(O)cc1)NC(=O)[C@@H]1CCCN1C(=O)[C@H](CCCNC(=N)N)NC(=O)[C@@H](NC(=O)[C@@H]1CCCN1C(=O)[C@@H](CCCCN)NC(=O)CN(CCN(CCN(CC(=O)O)CC(=O)O)CC(=O)O)CC(=O)O)C1CCN(C(=N)N)CC1)C(=O)N[C@@H](CC1CCCCC1)C(=O)O

Kd [1]: 0.3 µM
Molecule: {DTPA}-[dK]P[Gly(1-amidinopiperidin-4-yl)]RP[mTyr][Tle]L-OH [DTPA-DLys-Pro-Gly(PipAm)-Arg-Pro-mTyr-tBuGly-Leu-OH]

Kd [2]: 0.0045 µM
B11: DTPA-DTyr-Glu-Asn-Lys-Pro-Gly(PipAm)-Arg-Pro-Tyr-tBuGly-Cha-OH (peptide)
peptide: {DTPA}-[dY]ENKP[Gly(1-amidinopiperidin-4-yl)]RPY[Tle][Cha]-OH
SMILES: CC(C)(C)[C@H](NC(=O)[C@H](Cc1ccc(O)cc1)NC(=O)[C@@H]1CCCN1C(=O)[C@H](CCCNC(=N)N)NC(=O)[C@@H](NC(=O)[C@@H]1CCCN1C(=O)[C@H](CCCCN)NC(=O)[C@H](CC(N)=O)NC(=O)[C@H](CCC(=O)O)NC(=O)[C@@H](Cc1ccc(O)cc1)NC(=O)CN(CCN(CCN(CC(=O)O)CC(=O)O)CC(=O)O)CC(=O)O)C1CCN(C(=N)N)CC1)C(=O)N[C@@H](CC1CCCCC1)C(=O)O
notes: also called Compound XIV

Kd [1]: 0.0039 µM
Molecule: {DTPA}-[PipGly]P[Gly(1-amidinopiperidin-4-yl)]RPY[Tle]L-OH [DTPA-PipGly-Pro-Gly(PipAm)-Arg-Pro-Tyr-tBuGly-Leu-OH]

Kd [1]: 0.29 µM
B12: DTPA-DLys-Pro-Gly(PipAm)-Arg-Pro-Tyr-tBuGly-Cpa-OH (peptide)
peptide: {DTPA}-[dK]P[Gly(1-amidinopiperidin-4-yl)]RPY[Tle][Ala(cPr)]-OH
SMILES: CC(C)(C)[C@H](NC(=O)[C@H](Cc1ccc(O)cc1)NC(=O)[C@@H]1CCCN1C(=O)[C@H](CCCNC(=N)N)NC(=O)[C@@H](NC(=O)[C@@H]1CCCN1C(=O)[C@@H](CCCCN)NC(=O)CN(CCN(CCN(CC(=O)O)CC(=O)O)CC(=O)O)CC(=O)O)C1CCN(C(=N)N)CC1)C(=O)N[C@@H](CC1CC1)C(=O)O

Kd [2]: 0.014 µM
Molecule: {DTPA}-[dK]P[homoAla(PipAm)]RPY[Tle]L-OH [DTPA-DLys-Pro-homoAla(PipAm)-Arg-Pro-Tyr-tBuGly-Leu-OH]
